Test results: US20250361268A1, “NOVEL ANTI-INFLAMMATORY PEPTIDE AND USE THEREOF” (NOVACELL TECHNOLOGY INC., priority 2022, published 2025)

T1: FPR1 (UniProt P21462 1-350, limits assumed)
T1 sequence (looked up): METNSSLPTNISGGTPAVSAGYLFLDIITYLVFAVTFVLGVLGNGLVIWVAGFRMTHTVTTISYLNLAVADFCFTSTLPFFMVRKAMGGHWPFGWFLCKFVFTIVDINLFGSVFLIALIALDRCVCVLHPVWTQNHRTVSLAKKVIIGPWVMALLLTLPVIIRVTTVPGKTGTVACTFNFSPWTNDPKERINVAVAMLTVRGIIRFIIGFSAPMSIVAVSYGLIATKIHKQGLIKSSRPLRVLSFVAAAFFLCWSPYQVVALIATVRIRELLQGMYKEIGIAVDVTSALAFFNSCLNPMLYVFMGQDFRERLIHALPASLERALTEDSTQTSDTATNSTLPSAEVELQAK

B1: peptide of SEQ ID NO 91 (peptide)
peptide: MKYWYM
HELM: PEPTIDE1{[CCCC(=O)[*:2]].M.K.Y.W.Y.[dM].[am]}$$$$V2.0
SMILES: CCCC(=O)N[C@@H](CCSC)C(=O)N[C@@H](CCCCN)C(=O)N[C@@H](Cc1ccc(O)cc1)C(=O)N[C@@H](Cc1c[nH]c2ccccc12)C(=O)N[C@@H](Cc1ccc(O)cc1)C(=O)N[C@H](CCSC)C(N)=O
B2: peptide of SEQ ID NO 10 (peptide)
peptide: KMKYKVM
HELM: PEPTIDE1{[ac].K.M.K.Y.K.V.[dM].[am]}$$$$V2.0
SMILES: CSCC[C@H](NC(=O)[C@H](CCCCN)NC(C)=O)C(=O)N[C@@H](CCCCN)C(=O)N[C@@H](Cc1ccc(O)cc1)C(=O)N[C@@H](CCCCN)C(=O)N[C@H](C(=O)N[C@H](CCSC)C(N)=O)C(C)C
B3: peptide of SEQ ID NO 128 (peptide)
peptide: IKFWYM
HELM: PEPTIDE1{I.K.F.W.Y.[dM].[am]}$$$$V2.0; N-terminus assumed
SMILES: CC[C@H](C)[C@H](N)C(=O)N[C@@H](CCCCN)C(=O)N[C@@H](Cc1ccccc1)C(=O)N[C@@H](Cc1c[nH]c2ccccc12)C(=O)N[C@@H](Cc1ccc(O)cc1)C(=O)N[C@H](CCSC)C(N)=O
B4: peptide of SEQ ID NO 73 (peptide)
peptide: MKYKPM
HELM: PEPTIDE1{[CCCCCCCC(=O)[*:2]].M.K.Y.K.P.[dM].[am]}$$$$V2.0
SMILES: CCCCCCCC(=O)N[C@@H](CCSC)C(=O)N[C@@H](CCCCN)C(=O)N[C@@H](Cc1ccc(O)cc1)C(=O)N[C@@H](CCCCN)C(=O)N1CCC[C@H]1C(=O)N[C@H](CCSC)C(N)=O
B5: peptide of SEQ ID NO 43 (peptide)
peptide: MRYKYM
HELM: PEPTIDE1{[CCCC(=O)[*:2]].M.R.Y.K.Y.[dM].[am]}$$$$V2.0
SMILES: CCCC(=O)N[C@@H](CCSC)C(=O)N[C@@H](CCCNC(=N)N)C(=O)N[C@@H](Cc1ccc(O)cc1)C(=O)N[C@@H](CCCCN)C(=O)N[C@@H](Cc1ccc(O)cc1)C(=O)N[C@H](CCSC)C(N)=O
B6: peptide of SEQ ID NO 90 (peptide)
peptide: MKYWYM
HELM: PEPTIDE1{[ac].M.K.Y.W.Y.[dM].[am]}$$$$V2.0
SMILES: CSCC[C@H](NC(C)=O)C(=O)N[C@@H](CCCCN)C(=O)N[C@@H](Cc1ccc(O)cc1)C(=O)N[C@@H](Cc1c[nH]c2ccccc12)C(=O)N[C@@H](Cc1ccc(O)cc1)C(=O)N[C@H](CCSC)C(N)=O
B7: peptide of SEQ ID NO 71 (peptide)
peptide: MKYKPM
HELM: PEPTIDE1{[ac].M.K.Y.K.P.[dM].[am]}$$$$V2.0
SMILES: CSCC[C@H](NC(C)=O)C(=O)N[C@@H](CCCCN)C(=O)N[C@@H](Cc1ccc(O)cc1)C(=O)N[C@@H](CCCCN)C(=O)N1CCC[C@H]1C(=O)N[C@H](CCSC)C(N)=O
B8: peptide of SEQ ID NO 66 (peptide)
peptide: KMKYKPM
HELM: PEPTIDE1{K.M.K.Y.K.P.[dM].[am]}$$$$V2.0; N-terminus assumed
SMILES: CSCC[C@H](NC(=O)[C@@H](N)CCCCN)C(=O)N[C@@H](CCCCN)C(=O)N[C@@H](Cc1ccc(O)cc1)C(=O)N[C@@H](CCCCN)C(=O)N1CCC[C@H]1C(=O)N[C@H](CCSC)C(N)=O
B9: peptide of SEQ ID NO 48 (peptide)
peptide: RWRYRYM
HELM: PEPTIDE1{R.W.R.Y.R.Y.[dM].[am]}$$$$V2.0; N-terminus assumed
SMILES: CSCC[C@@H](NC(=O)[C@H](Cc1ccc(O)cc1)NC(=O)[C@H](CCCNC(=N)N)NC(=O)[C@H](Cc1ccc(O)cc1)NC(=O)[C@H](CCCNC(=N)N)NC(=O)[C@H](Cc1c[nH]c2ccccc12)NC(=O)[C@@H](N)CCCNC(=N)N)C(N)=O
B10: peptide of SEQ ID NO 72 (peptide)
peptide: MKYKPM
HELM: PEPTIDE1{[CCCC(=O)[*:2]].M.K.Y.K.P.[dM].[am]}$$$$V2.0
SMILES: CCCC(=O)N[C@@H](CCSC)C(=O)N[C@@H](CCCCN)C(=O)N[C@@H](Cc1ccc(O)cc1)C(=O)N[C@@H](CCCCN)C(=O)N1CCC[C@H]1C(=O)N[C@H](CCSC)C(N)=O
B11: peptide of SEQ ID NO 88 (peptide)
peptide: MRYWYM
HELM: PEPTIDE1{[CCCCCCCC(=O)[*:2]].M.R.Y.W.Y.[dM].[am]}$$$$V2.0
SMILES: CCCCCCCC(=O)N[C@@H](CCSC)C(=O)N[C@@H](CCCNC(=N)N)C(=O)N[C@@H](Cc1ccc(O)cc1)C(=O)N[C@@H](Cc1c[nH]c2ccccc12)C(=O)N[C@@H](Cc1ccc(O)cc1)C(=O)N[C@H](CCSC)C(N)=O
B12: peptide of SEQ ID NO 77 (peptide)
peptide: RWRYWYM
HELM: PEPTIDE1{R.W.R.Y.W.Y.[dM].[am]}$$$$V2.0; N-terminus assumed
SMILES: CSCC[C@@H](NC(=O)[C@H](Cc1ccc(O)cc1)NC(=O)[C@H](Cc1c[nH]c2ccccc12)NC(=O)[C@H](Cc1ccc(O)cc1)NC(=O)[C@H](CCCNC(=N)N)NC(=O)[C@H](Cc1c[nH]c2ccccc12)NC(=O)[C@@H](N)CCCNC(=N)N)C(N)=O
B13: peptide of SEQ ID NO 12 (peptide)
peptide: KMKYKVM
HELM: PEPTIDE1{[CCCCCCCC(=O)[*:2]].K.M.K.Y.K.V.[dM].[am]}$$$$V2.0
SMILES: CCCCCCCC(=O)N[C@@H](CCCCN)C(=O)N[C@@H](CCSC)C(=O)N[C@@H](CCCCN)C(=O)N[C@@H](Cc1ccc(O)cc1)C(=O)N[C@@H](CCCCN)C(=O)N[C@H](C(=O)N[C@H](CCSC)C(N)=O)C(C)C
B14: peptide of SEQ ID NO 126 (peptide)
peptide: MRYYYM
HELM: PEPTIDE1{[ac].M.R.Y.Y.Y.[dM].[am]}$$$$V2.0
SMILES: CSCC[C@H](NC(C)=O)C(=O)N[C@@H](CCCNC(=N)N)C(=O)N[C@@H](Cc1ccc(O)cc1)C(=O)N[C@@H](Cc1ccc(O)cc1)C(=O)N[C@@H](Cc1ccc(O)cc1)C(=O)N[C@H](CCSC)C(N)=O
B15: peptide of SEQ ID NO 79 (peptide)
peptide: WRYWYM
HELM: PEPTIDE1{W.R.Y.W.Y.[dM].[am]}$$$$V2.0; N-terminus assumed
SMILES: CSCC[C@@H](NC(=O)[C@H](Cc1ccc(O)cc1)NC(=O)[C@H](Cc1c[nH]c2ccccc12)NC(=O)[C@H](Cc1ccc(O)cc1)NC(=O)[C@H](CCCNC(=N)N)NC(=O)[C@@H](N)Cc1c[nH]c2ccccc12)C(N)=O
B16: peptide of SEQ ID NO 44 (peptide)
peptide: HMRYKYM
HELM: PEPTIDE1{H.M.R.Y.K.Y.[dM].[am]}$$$$V2.0; N-terminus assumed
SMILES: CSCC[C@H](NC(=O)[C@@H](N)Cc1c[nH]cn1)C(=O)N[C@@H](CCCNC(=N)N)C(=O)N[C@@H](Cc1ccc(O)cc1)C(=O)N[C@@H](CCCCN)C(=O)N[C@@H](Cc1ccc(O)cc1)C(=O)N[C@H](CCSC)C(N)=O
B17: peptide of SEQ ID NO 8 (peptide)
peptide: RMRYKVM
HELM: PEPTIDE1{[CCCCCCCC(=O)[*:2]].R.M.R.Y.K.V.[dM].[am]}$$$$V2.0
SMILES: CCCCCCCC(=O)N[C@@H](CCCNC(=N)N)C(=O)N[C@@H](CCSC)C(=O)N[C@@H](CCCNC(=N)N)C(=O)N[C@@H](Cc1ccc(O)cc1)C(=O)N[C@@H](CCCCN)C(=O)N[C@H](C(=O)N[C@H](CCSC)C(N)=O)C(C)C
B18: peptide of SEQ ID NO 69 (peptide)
peptide: KMKYKPM
HELM: PEPTIDE1{[CCCCCCCC(=O)[*:2]].K.M.K.Y.K.P.[dM].[am]}$$$$V2.0
SMILES: CCCCCCCC(=O)N[C@@H](CCCCN)C(=O)N[C@@H](CCSC)C(=O)N[C@@H](CCCCN)C(=O)N[C@@H](Cc1ccc(O)cc1)C(=O)N[C@@H](CCCCN)C(=O)N1CCC[C@H]1C(=O)N[C@H](CCSC)C(N)=O
B19: peptide of SEQ ID NO 9 (peptide)
peptide: KMKYKVM
HELM: PEPTIDE1{K.M.K.Y.K.V.[dM].[am]}$$$$V2.0; N-terminus assumed
SMILES: CSCC[C@H](NC(=O)[C@@H](N)CCCCN)C(=O)N[C@@H](CCCCN)C(=O)N[C@@H](Cc1ccc(O)cc1)C(=O)N[C@@H](CCCCN)C(=O)N[C@H](C(=O)N[C@H](CCSC)C(N)=O)C(C)C
B20: peptide of SEQ ID NO 84 (peptide)
peptide: RMRYWYM
HELM: PEPTIDE1{[CCCCCCCC(=O)[*:2]].R.M.R.Y.W.Y.[dM].[am]}$$$$V2.0
SMILES: CCCCCCCC(=O)N[C@@H](CCCNC(=N)N)C(=O)N[C@@H](CCSC)C(=O)N[C@@H](CCCNC(=N)N)C(=O)N[C@@H](Cc1ccc(O)cc1)C(=O)N[C@@H](Cc1c[nH]c2ccccc12)C(=O)N[C@@H](Cc1ccc(O)cc1)C(=O)N[C@H](CCSC)C(N)=O
B21: peptide of SEQ ID NO 49 (peptide)
peptide: MRYRYM
HELM: PEPTIDE1{[ac].M.R.Y.R.Y.[dM].[am]}$$$$V2.0
SMILES: CSCC[C@H](NC(C)=O)C(=O)N[C@@H](CCCNC(=N)N)C(=O)N[C@@H](Cc1ccc(O)cc1)C(=O)N[C@@H](CCCNC(=N)N)C(=O)N[C@@H](Cc1ccc(O)cc1)C(=O)N[C@H](CCSC)C(N)=O

These binders were tested against T1, FPR1 (assay: cell-based or functional assay).
In the case of B1, the “EC50 for [Ca2+]” value is reported as greater than 10 µM. B2 was tested, and the “EC50 for [Ca2+]” value was greater than 10 µM. In the case of B3, the “EC50 for [Ca2+]” value is reported as greater than 10 µM. B4 was tested, and the “EC50 for [Ca2+]” value was greater than 10 µM. B5 was tested, and the “EC50 for [Ca2+]” value was greater than 10 µM. In the case of B6, the “EC50 for [Ca2+]” value is reported as greater than 10 µM. With B7 the “EC50 for [Ca2+]” value was greater than 10 µM. In the case of B8, the “EC50 for [Ca2+]” value is reported as greater than 10 µM. B9 was tested, and the “EC50 for [Ca2+]” value was greater than 10 µM. In the case of B10, the “EC50 for [Ca2+]” value is reported as greater than 10 µM. For B11, the “EC50 for [Ca2+]” value was greater than 10 µM. With B12 the “EC50 for [Ca2+]” value was greater than 10 µM. B13 was tested, and the “EC50 for [Ca2+]” value was greater than 10 µM. For B14, the “EC50 for [Ca2+]” value was greater than 10 µM. With B15 the “EC50 for [Ca2+]” value was greater than 10 µM. With B16 the “EC50 for [Ca2+]” value was greater than 10 µM. For B17, the “EC50 for [Ca2+]” value was greater than 10 µM. B18 was tested, and the “EC50 for [Ca2+]” value was greater than 10 µM. With B19 the “EC50 for [Ca2+]” value was greater than 10 µM. With B20 the “EC50 for [Ca2+]” value was greater than 10 µM. In the case of B21, the “EC50 for [Ca2+]” value is reported as greater than 10 µM.
